Patent US20150086555A1

B1: TCN-547 (5092_F11) (antibody, V domains shown)
VH: QVQLQESGPGLVKPSQTLSLTCTVSGDSISSVDHYWSWIRQHPVKGLEWIGFMYYSASTYYNPSLKSRVTISTDTSKNQFSLRLSSVTAADTAVYYCARGTCAGDCSLHYYYYGLDVWGQGRTVTVSS
VL: DIQMTQSPSSLSASVGDRVTITCRASQSISSYLNWYQHKPGKAPKVLMYAVSILQSGVPSRFSGSGSGADFTLTISSLQPEDFATYYCQQSYSSPLTFGGGTKVEIK
B2: TCN-558 (5248_H10b) (antibody, V domains shown)
VH: QVQLVQSGSEVKKPGTSVKVSCTASGSVFTNYGISWVRQAPGQGLEWMGGIIPLFGAAKYAQKFQGRVTITADESTKTVYMELSRLTSKDTAIYFCAKAPRVYEYYFDQWGQGTPVTVSS
VL: EIVMTQFPATLSVSPGERVTLSCRASQSVSNNLAWYQQKPGQPPRLLIYDASTRATGVPAKFSGTGSGTEFTLSISSLQSEDFAVYYCQQYHNWPPSYSFGLGTKLEIK
B3: TCN-548 (5092_P01) (antibody, V domains shown)
VH: QVQLQESGPGLVKPSETLSLTCTVSSGPMSDYYWSWIRQPPGKGLEWIGHVSVSHGGRTKSNPSVMSRVTISVETSKNQFSLKLTSVTAADTAVYYCARLNYYDRSGYHSPDGPSNNWFDPWGQGTLVTVSS
VL: not shown
B4: TCN-541 (5062_M11) (antibody, V domains shown)
VH: QVQLQESGPGLVKPSETLSLTCTVSGGSINSYYWNWIRQPPGKGLEWIGYIYHSGSTNYNPSLKSRVTISVDTSKNQFSLQLSSVTAADTAVYYCARLRTDYGDPDSVYYYGMDVWGQGTTVTVSS
VL: SYELTQPPSVSVSPGQTARITCSGDALPKQNAYWYQQKPGQAPVLLIYKDSERPSGIPERFSGSSSGTTVTLTISGVQAEDEADYYCQSADSSGTSWVFGGGTKLTVL

Experiments:
Details in all cases: remark: other sources report otherwise
[1] = target: recombinant soluble homotrimeric HA of A/Japan/305/57 (H2N2) (Influenza A virus A/Japan/305/1957(H2N2)); assay: HA microarray, BCC supernatant
[2] = target: recombinant soluble homotrimeric HA of A/Netherlands/219/03 (H7N7) (Influenza A virus A/Netherlands/219/03(H7N7)); assay: HA microarray, BCC supernatant
[3] = target: recombinant soluble homotrimeric HA of A/Solomon Islands/3/06 (H1N1) (Influenza A virus A/Solomon Islands/3/2006(H1N1)); assay: HA microarray, BCC supernatant
[4] = target: recombinant soluble homotrimeric HA of A/Wisconsin/67/05 (H3N2) (Influenza A virus A/Wisconsin/67/2005(H3N2)); assay: HA microarray, BCC supernatant
[5] = target: recombinant soluble homotrimeric HA of A/duck/Yangzhou/02/05 (H8N4) (Influenza A virus A/duck/Yangzhou/02/2005(H8N4)); assay: HA microarray, BCC supernatant
[6] = target: recombinant soluble homotrimeric HA of A/swine/Ontario/01911-2/99 (H4N6) (Influenza A virus A/Swine/Ontario/01911-2/99 (H4N6)); assay: HA microarray, BCC supernatant
[7] = target: recombinant soluble homotrimeric HA, A/Egypt/3300-NAMRU3/08 H5N1 (Influenza A virus A/Egypt/3300-NAMRU3/2008(H5N1)); assay: microarray, transfection SN IgG, trimeric HA
[8] = target: recombinant soluble homotrimeric HA, A/Japan/305/57 H2N2 (Influenza A virus A/Japan/305/1957(H2N2)); assay: microarray, transfection SN IgG, trimeric HA
[9] = target: recombinant soluble homotrimeric HA, A/Netherlands/219/03 H7N7 (Influenza A virus A/Netherlands/219/03(H7N7)); assay: microarray, transfection SN IgG, trimeric HA
[10] = target: recombinant soluble homotrimeric HA, A/Solomon Islands/3/06 H1N1 (Influenza A virus A/Solomon Islands/3/2006(H1N1)); assay: microarray, transfection SN IgG, trimeric HA
[11] = target: recombinant soluble homotrimeric HA, A/South Carolina/1/18 H1N1 (Influenza A virus A/South Carolina/1/18 (H1N1)); assay: microarray, transfection SN IgG, trimeric HA
[12] = target: recombinant soluble homotrimeric HA, A/Wisconsin/67/05 H3N2 (Influenza A virus A/Wisconsin/67/2005(H3N2)); assay: microarray, transfection SN IgG, trimeric HA
[13] = target: recombinant soluble homotrimeric HA, A/chicken/Vietnam/NCVD-016/08 H5N1 (Influenza A virus A/chicken/Vietnam/NCVD-016/2008(H5N1)); assay: microarray, transfection SN IgG, trimeric HA
[14] = target: recombinant soluble homotrimeric HA, A/duck/Yangzhou/02/05 H8N4 (Influenza A virus A/duck/Yangzhou/02/2005(H8N4)); assay: microarray, transfection SN IgG, trimeric HA
[15] = target: recombinant soluble homotrimeric HA, A/northern shoveler/California/HKWF115/07 H6N4 (Influenza A virus A/northern shoveler/California/HKWF115/2007(H6N1)); assay: microarray, transfection SN IgG, trimeric HA
[16] = target: recombinant soluble homotrimeric HA, A/swine/Ontario/01911-2/99 H4N6 (Influenza A virus A/Swine/Ontario/01911-2/99 (H4N6)); assay: microarray, transfection SN IgG, trimeric HA
[17] = target: recombinant soluble homotrimeric HA, A/California/4/09 H1N1 (Influenza A virus A/California/04/2009(H1N1)); assay: microarray, transfection SN IgG, trimeric HA
[18] = target: recombinant homotrimeric HA A/California/4/09 H1N1 (Influenza A virus A/California/04/2009(H1N1)); assay: protein microarray, purified IgG, trimeric HA
[19] = target: recombinant homotrimeric HA A/Egypt/3300-NAMRU3/08 H5N1 (Influenza A virus A/Egypt/3300-NAMRU3/2008(H5N1)); assay: protein microarray, purified IgG, trimeric HA
[20] = target: recombinant homotrimeric HA A/Hong Kong/1073/99 H9N2 (Influenza A virus A/Hong Kong/1073/99 (H9N2)); assay: protein microarray, purified IgG, trimeric HA
[21] = target: recombinant homotrimeric HA A/Hong Kong/2108/03 H9N2 (Influenza A virus A/HK/2108/2003(H9N2)); assay: protein microarray, purified IgG, trimeric HA
[22] = target: recombinant homotrimeric HA A/Japan/305/57 H2N2 (Influenza A virus A/Japan/305/1957(H2N2)); assay: protein microarray, purified IgG, trimeric HA
[23] = target: recombinant homotrimeric HA A/Netherlands/219/03 H7N7 (Influenza A virus A/Netherlands/219/03(H7N7)); assay: protein microarray, purified IgG, trimeric HA
[24] = target: recombinant homotrimeric HA A/Solomon Islands/3/06 H1N1 (Influenza A virus A/Solomon Islands/3/2006(H1N1)); assay: protein microarray, purified IgG, trimeric HA
[25] = target: recombinant homotrimeric HA A/South Carolina/1/18 H1N1 (Influenza A virus A/South Carolina/1/18 (H1N1)); assay: protein microarray, purified IgG, trimeric HA
[26] = target: recombinant homotrimeric HA A/Wisconsin/67/05 H3N2 (Influenza A virus A/Wisconsin/67/2005(H3N2)); assay: protein microarray, purified IgG, trimeric HA
[27] = target: recombinant homotrimeric HA A/chicken/Vietnam/NCVD-016/08 H5N1 (Influenza A virus A/chicken/Vietnam/NCVD-016/2008(H5N1)); assay: protein microarray, purified IgG, trimeric HA
[28] = target: recombinant homotrimeric HA A/northern shoveler/California/HKWF115/07 H6N4 (Influenza A virus A/northern shoveler/California/HKWF115/2007(H6N1)); assay: protein microarray, purified IgG, trimeric HA
[29] = target: recombinant soluble homotrimeric HA of A/California/4/09 (H1N1) (Influenza A virus A/California/04/2009(H1N1)); assay: HA microarray, BCC supernatant
[30] = target: recombinant soluble homotrimeric HA of A/Indonesia/5/05 (H5N1) (Influenza A virus A/Indonesia/5/2005(H5N1)); assay: HA microarray, BCC supernatant
[31] = target: T1, recombinant soluble homotrimeric HA of A/Vietnam/1203/04 (H5N1) (Influenza A virus A/VietNam/1203/2004(H5N1)); assay: HA microarray, BCC supernatant
[32] = target: recombinant homotrimeric HA A/Anhui/1/05 H5N1 (Influenza A virus A/Anhui/1/2005(H5N1)); assay: protein microarray, purified IgG, trimeric HA
[33] = target: recombinant homotrimeric HA A/Indonesia/5/05 H5N1 (Influenza A virus A/Indonesia/5/2005(H5N1)); assay: protein microarray, purified IgG, trimeric HA
[34] = target: recombinant homotrimeric HA A/Vietnam/1203/04 H5N1 (Influenza A virus A/VietNam/1203/2004(H5N1)); assay: protein microarray, purified IgG, trimeric HA
[35] = target: recombinant homotrimeric HA A/duck/Yangzhou/02/05 H8N4 (Influenza A virus A/duck/Yangzhou/02/2005(H8N4)); assay: protein microarray, purified IgG, trimeric HA
[36] = target: recombinant soluble homotrimeric HA of A/South Carolina/1/18 (H1N1) (Influenza A virus A/South Carolina/1/18 (H1N1)); assay: trimeric HA microarray, transfection supernatant set 5
[37] = target: T1, recombinant soluble homotrimeric HA of …; assay: as above
[38] = target: recombinant soluble homotrimeric HA of A/chicken/Vietnam/NCVD-016/08 (H5N1) (Influenza A virus A/chicken/Vietnam/NCVD-016/2008(H5N1)); assay: as above

Binder | Trimeric HA Binding: RLU [1] | Trimeric HA Binding: RLU [2] | Trimeric HA Binding: RLU [3] | Trimeric HA Binding: RLU [4] | Trimeric HA Binding: RLU [5] | Trimeric HA Binding: RLU [6] | Trimeric HA Binding: RLU [7] | Trimeric HA Binding: RLU [8] | Trimeric HA Binding: RLU [9] | Trimeric HA Binding: RLU [10] | Trimeric HA Binding: RLU [11] | Trimeric HA Binding: RLU [12] | Trimeric HA Binding: RLU [13] | Trimeric HA Binding: RLU [14] | Trimeric HA Binding: RLU [15] | Trimeric HA Binding: RLU [16] | Trimeric HA Binding: RLU [17] | Trimeric HA Binding: RLU [18] | Trimeric HA Binding: RLU [19] | Trimeric HA Binding: RLU [21] | also measured
B1 | 40 RLU | 401 RLU | 155 RLU | 16900 RLU | 278 RLU | 252 RLU | 16800 RLU | 1350 RLU | 2090 RLU | 1080 RLU | 2020 RLU | 6970 RLU | 1320 RLU | 3340 RLU | 2620 RLU | 1600 RLU | – | – | – | – | –
B2 | – | – | – | – | – | – | 21900 RLU | 34400 RLU | 5840 RLU | 36100 RLU | 40700 RLU | 26600 RLU | 33400 RLU | – | 29400 RLU | 10000 RLU | 20200 RLU | 24700 RLU | 25500 RLU | 257 RLU | Trimeric HA Binding: RLU [20]: 4380 RLU; Trimeric HA Binding: RLU [22]: 27200 RLU; Trimeric HA Binding: RLU [23]: 623 RLU; Trimeric HA Binding: RLU [24]: 22000 RLU; Trimeric HA Binding: RLU [25]: 13600 RLU; Trimeric HA Binding: RLU [26]: 320 RLU; Trimeric HA Binding: RLU [27]: 9730 RLU; Trimeric HA Binding: RLU [28]: 12300 RLU
B3 | 416 RLU | 758 RLU | 283 RLU | – | 184 RLU | 240 RLU | – | 1020 RLU | 2130 RLU | 750 RLU | 1150 RLU | – | 1060 RLU | 5740 RLU | 2100 RLU | 1620 RLU | 818 RLU | – | – | – | Trimeric HA Binding: RLU [29]: 234 RLU
B4 | – | – | – | 2920 RLU | – | – | – | – | – | – | – | – | – | – | – | – | – | 348 RLU | 791 RLU | 175 RLU | Trimeric HA Binding: RLU [30]: 30 RLU; Trimeric HA Binding: RLU [31]: 43 RLU; Trimeric HA Binding: RLU [32]: 970 RLU; Trimeric HA Binding: RLU [33]: 160 RLU; Trimeric HA Binding: RLU [22]: 934 RLU; Trimeric HA Binding: RLU [25]: 192 RLU; Trimeric HA Binding: RLU [34]: 1150 RLU; Trimeric HA Binding: RLU [35]: 352 RLU; Trimeric HA Binding: RLU [36]: 2580 RLU; Trimeric HA Binding: RLU [37]: 45500 RLU; Trimeric HA Binding: RLU [38]: 11000 RLU
